The results in this text go back to IntAct's records for PubMed 16766694.

First the molecules themselves.
B1: Pyridoxal 5'-phosphate synthase subunit PDX1.3 (Arabidopsis thaliana (Mouse-ear cress)), Q8L940 (parent)
chain: MEGTGVVAVYGNGAITEAKKSPFSVKVGLAQMLRGGVIMDVVNAEQARIAEEAGACAVMALERVPADIRAQGGVARMSDPQMIKEIKQAVTIPVMAKARIGHFVEAQILEAIGIDYIDESEVLTLADEDHHINKHNFRIPFVCGCRNLGEALRRIREGAAMIRTKGEAGTGNIIEAVRHVRSVNGDIRVLRNMDDDEVFTFAKKLAAPYDLVMQTKQLGRLPVVQFAAGGVATPADAALMMQLGCDGVFVGSGIFKSGDPARRARAIVQAVTHYSDPEMLVEVSCGLGEAMVGINLNDEKVERFANRSE
partner: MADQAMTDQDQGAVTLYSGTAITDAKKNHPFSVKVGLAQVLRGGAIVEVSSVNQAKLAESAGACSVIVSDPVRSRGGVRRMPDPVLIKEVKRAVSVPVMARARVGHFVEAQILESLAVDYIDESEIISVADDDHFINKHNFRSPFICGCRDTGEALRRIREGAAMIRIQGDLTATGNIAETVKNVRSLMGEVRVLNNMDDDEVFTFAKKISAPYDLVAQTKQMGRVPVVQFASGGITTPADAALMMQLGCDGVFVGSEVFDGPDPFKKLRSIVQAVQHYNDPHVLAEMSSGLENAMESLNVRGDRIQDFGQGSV
B2: Pyridoxal 5'-phosphate synthase subunit PDX1.3 (Arabidopsis thaliana (Mouse-ear cress)), Q8L940 (parent)
chain: B1 chain
partner: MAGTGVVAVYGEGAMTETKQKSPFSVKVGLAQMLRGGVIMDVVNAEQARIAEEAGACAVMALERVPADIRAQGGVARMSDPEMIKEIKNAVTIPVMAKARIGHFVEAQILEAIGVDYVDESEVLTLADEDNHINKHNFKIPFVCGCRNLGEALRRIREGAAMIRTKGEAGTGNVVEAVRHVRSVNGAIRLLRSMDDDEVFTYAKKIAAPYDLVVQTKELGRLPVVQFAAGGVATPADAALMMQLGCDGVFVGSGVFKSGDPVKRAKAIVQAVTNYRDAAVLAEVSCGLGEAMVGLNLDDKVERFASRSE
B3: Pyridoxal 5'-phosphate synthase subunit PDX1.3 (Arabidopsis thaliana (Mouse-ear cress)), Q8L940 (parent)
chain: B1 chain
partner: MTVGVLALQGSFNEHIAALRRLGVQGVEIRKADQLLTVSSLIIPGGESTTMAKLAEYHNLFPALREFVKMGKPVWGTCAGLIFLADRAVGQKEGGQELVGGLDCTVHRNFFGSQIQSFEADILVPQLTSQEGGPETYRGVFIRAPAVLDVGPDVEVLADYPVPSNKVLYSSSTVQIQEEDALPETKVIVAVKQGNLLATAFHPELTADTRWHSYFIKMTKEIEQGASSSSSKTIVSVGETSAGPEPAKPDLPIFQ

The variants in one experiment derive from B1. As to conditions: with pdx12_arath PDX12, Q9ZNR6.
In the case of G54S, the “effect of a mutation on the interaction” value is “disrupting interaction”.

Variants of B2 are the subject of another experiment. As to conditions: with pdx11_arath PDX11, O80448.
For the variant G54S, the “effect of a mutation on the interaction” value is “disrupting interaction”.

In the next experiment the parent is B3. As to conditions: with pdx2_arath PDX2, Q8LAD0.
On to G54S, for which the “effect of a mutation on the interaction” value is listed as “disrupting interaction”.
